# Test results reported in patent publication US10472605B2, “Serum-free medium” (National University of Ireland, Galway, priority 2014, dated 2019).
# B1: vitronectin: extra-cellular matrix attachment factor used to pre-coat flasks (protein, UniProt P04004 20-478, looked up)
# Vitronectin: DQESCKGRCTEGFNVDKKCQCDELCSYYQSCCTDYTAECKPQVTRGDVFTMPEDEYTVYDDGEEKNNATVHEQVGGPSLTSDLQAQSKGNPEQTPVLKPEEEAPAPEVGASKPEGIDSRPETLHPGRPQPPAEEELCSGKPFDAFTDLKNGSLFAFRGQYCYELDEKAVRPGYPKLIRDVWGIEGPIDAAFTRINCQGKTYLFKGSQYWRFEDGVLDPDYPRNISDGFDGIPDNVDAALALPAHSYSGRERVYFFKGKQYWEYQFQHQPSQEECEGSSLSAVFEHFAMMQRDSWEDIFELLFWGRTSAGTRQPQFISRDWHGVPGQVDAAMAGRIYISGMAPRPSLAKKQRFRHRNRKGYRSQRGHSRGRNQNSRRPSRATWLSLFSSEESNLGANNYDDYRMDWLVPATCEPIQSVFFFSGDKYYRVNLRTRRVDTVDPPYPRSIAQYWLGCPAPGHL
# B2: FGF4: fibroblast growth factor 4 (protein, UniProt P08620 31-206, looked up)
# Fibroblast growth factor 4: APTAPNGTLEAELERRWESLVALSLARLPVAAQPKEAAVQSGAGDYLLGIKRLRRLYCNVGIGFHLQALPDGRIGGAHADTRDSLLELSPVERGVVSIFGVASRFFVAMSSKGKLYGSPFFTDECTFKEILLPNNYNAYESYKYPGMFIALSKNGKTKKGNRVSPTMKVTHFLPRL
# Assays:
# [1] = test system: MSC; assay: Attachment of MSC isolated in 10% FBS and re-attached under serum-free conditions; type: cell-based; conditions: after 18 hours in a serum-free environment; vitronectin 0.5 μg/ml pre-coating
# From the text: Tissue culture flasks were pre-coated with fibronectin (FN; black), hylauronic acid (HA; blue), vitronectin (VN; red) or laminin (LN; green) and cells were allowed to adhere in serum-free conditions. Controls include serum-free plating without the presence of an extra-cellular matrix (ECM) attachment factor and 10% FBS (grey). Results are representative of 3 biological replicates with n=2;
# MSC were attached on tissue culture flasks in the presence of EGF (red) or on tissue culture plastic precoated with FN (purple) or in the presence of EGF on fibronectin coated plastic (green) and passaged every 3 days. Controls include serum free plating without the presence of an ECM attachment factor (blue) and 10% FBS (black). Results are representative of 3 biological replicates with n=2;
# (§1) Proliferation of the MSC attached in the presence of basic fibroblast growth factor (bFGF2, FGF2) was also assessed after 6 days.
# [2] = test system: MSC; assay: Growth/proliferation of MSC isolated in 10% FBS and re-attached under serum-free conditions; type: cell-based; conditions: 5 ng/ml; over 3 passages, days 5, 10 and 15; fibronectin-coated
# Protocol: Tissue culture flasks were pre-coated with FN (black), HA (blue), VN (red) or LN (green) and cells were allowed to adhere in serum-free conditions. Cell numbers were obtained after 5 days. Controls include serum-free plating without the presence of an ECM attachment factor and 10% FBS (grey). Results are representative of 3 biological replicates with n=2;
# Cells were then cultured in the presence of growth factors and passaged every 5 days. Controls include serum free plating without growth factors and 10% FBS. Results are representative of 3 biological replicates with n=2;
# Cells were then cultured in serum-free media containing FGF2 (5 ng/ml) in the presence of PGE2, cholesterol or lipoprotein for 5 days. Controls include serum free plating without growth factors 10% FBS (A). Cells were then cultured in the presence of lipoprotein and passaged every 5 days for 3 passages, controls include serum free plating without lipoprotein (B). Results are representative of 3 biological replicates with n=2;
# as §1
# Serum-free basal medium formulation was selected based on the literature describing low-serum cell culture of dental pulp stem cells (Tarle et al., 2010). […]
Molecule,MSC attachment [1],MSC proliferation in serum free medium [2]
B1,supported MSC attachment optimally,–
B2,–,increased MSC proliferation
